Source: the supplement of paper PMC11908140

B1: library; numbered along this chain (parent)
chain: MRKPRAAVGSGHRKQAASQEGRQKHAKNNSQAKPSACDGLARQPEEVVLQASVSSYHLFRDVAEVTAFRGSLLSWYDQEKRDLPWRRRAEDEMDLDRRAYAVWVSEVMLQQTQVATVINYYTGWMQKWPTLQDLASASLEEVNQLWAGLGYYSRGRRLQEGARKVVEELGGHMPRTAETLQQLLPGVGRYTAGAIASIAFGQATGVVDGNVARVLCRVRAIGADPSSTLVSQQLWGLAQQLVDPARPGDFNQAAMELGATVCTPQRPLCSQCPVESLCRARQRVEQEQLLASGSLSGSPDVEECAPNTGQCHLCLPPSEPWDQTLGVVNFPRKASRKPPREESSATCVLEQPGALGAQILLVQRPNSGLLAGLWEFPSVTWEPSEQLQRKALLQELQRWAGPLPATHLRHLGEVVHTFSHIKLTYQVYGLALEGQTPVTTVPPGARWLTQEEFHTAAVSTAMKKVFRVYQGQQPGTCMGSKRSQVSSPCSRKKPRMGQQVLDNFFRSHISTDAHSLNSAAQ

Variants of: B1
Assay: 8OG:A repair function score (normalized; synonymous = 0, nonsense = -1) (normalized log-likelihood score); higher = more repair activity (WT-like)
Details: with 8OG:A DNA repair reporter (GFP) in HEK-293 MUTYH KO cells
In short: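 Lentiviral MUTYH cDNA NNN codon-scan libraries in HEK-293 MUTYH knockout cells (10 pg/ml doxycycline) were co-transfected with an 8OG:A GFP repair reporter plus mCherry. At 72 h, viable mCherry+ cells were sorted into GFP+ (repair) and GFP− bins, three replicates per tile, then tile amplicons were sequenced. Per-tile Rosace fitness scores became a normalized repair function score anchored on synonymous and nonsense distributions. Synonymous medians were set to 0 and nonsense to -1; variants under 300 counts per million at the start were removed.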

Row | Variant | 8OG:A repair function score
1 | V274H | -0.563
2 | D502S | -0.0153
3 | P225I | 0.0375
4 | T176Q | -0.0945
5 | T436A | 0.195
6 | K3W | -0.0484
7 | M93F | 0.00598
8 | R154Y | -1.21
9 | R467E | -0.144
10 | Q111D | -0.941
11 | D224A | -0.954
12 | Q232W | -0.433
13 | T204N | -0.117
14 | Q286M | -0.0133
15 | L355E | 0.0516
16 | G444P | -0.189
17 | L432Q | -0.604
18 | D91W | -0.00643
19 | P377D | -1.06
20 | I509H | 0.0112
21 | R281L | -0.166
22 | F200P | -1.02
23 | Q351Y | 0.023
24 | D512C | 0.0193

Row | Variant | 8OG:A repair function score
25 | G205N | -0.947
26 | A254E | -0.62
27 | L268M | 0.0171
28 | V328D | -0.227
29 | A89P | -0.00485
30 | W235N | -0.368
31 | A41E | -0.0689
32 | P34N | 0.0767
33 | K127H | 0.135
34 | H508F | -0.00232
35 | L355F | -0.0288
36 | P316H | -0.123
37 | T460V | -0.029
38 | R467A | 0.0232
39 | A41L | -0.0575
40 | L432V | -0.118
41 | G293R | -0.00692
42 | W374K | -0.692
43 | Q240N | -0.999
44 | Q386P | -0.219
45 | D77G | -0.0368
46 | E451M | 0.0404
47 | A199T | -0.214
48 | P338C | -0.0613

Row | Variant | 8OG:A repair function score
49 | Q182M | -0.0488
50 | Q358P | 0.069
51 | V62Y | 0.00694
52 | A101L | -0.0936
53 | R60S | 0.00106
54 | G148C | -0.72
55 | C216T | -0.335
56 | S367Y | -0.204
57 | Q286E | -0.0273
58 | T449Q | -0.0362
59 | L369H | -0.345
60 | A115L | -0.0647
61 | Q426W | -0.215
62 | N503P | -0.000934
63 | V414M | -0.321
64 | V301L | -0.0363
65 | C304H | -0.403
66 | P404R | 0.163
67 | D224F | -0.955
68 | R467P | -0.876
69 | G236A | 0.149
70 | R219A | -0.563
71 | E451F | -0.282
72 | R336Q | -0.218

Row | Variant | 8OG:A repair function score
73 | V104E | -0.936
74 | S486C | -0.016
75 | L313Q | -0.328
76 | L241V | -0.358
77 | V107L | -0.266
78 | V362S | -0.406
79 | Q351G | -0.16
80 | W85E | -1.28
81 | A67N | -0.0206
82 | A162W | -0.917
83 | D300Q | -0.112
84 | P320H | 0.0683
85 | E350I | -0.103
86 | Q78R | 0.00285
87 | A445Y | -0.693
88 | I421P | -1.15
89 | G188W | -1.02
90 | N143H | -0.621
91 | D224V | -0.988
92 | A245I | -0.104
93 | L72P | -1.34
94 | R491I | 0.0211
95 | L83H | -0.597
96 | K337N | -0.132

Row | Variant | 8OG:A repair function score
97 | L215D | -0.968
98 | A51V | 0.0738
99 | E319P | -0.228
100 | A400S | -0.189
101 | E140S | -0.0988
102 | P225F | -0.222
103 | K390V | -0.164
104 | Q181M | -0.0648
105 | Y100L | -1.29
106 | K127W | -0.529
107 | S486K | -0.0131
108 | E385I | 0.197
109 | M125L | -0.161
110 | L290S | -0.022
111 | P339T | -0.0529
112 | S507G | -0.00119
113 | Q521L | -0.0455
114 | Q110F | -1.24
115 | G293F | -0.0692
116 | G248R | -0.738
117 | V379C | -0.214
118 | S231P | -0.683
119 | V379E | -0.777
120 | A6Y | -0.0552

Row | Variant | 8OG:A repair function score
121 | T511S | -0.0121
122 | S138H | 0.0365
123 | N329D | -0.288
124 | A99M | -0.378
125 | A345F | -0.165
126 | V107N | -0.735
127 | S105I | -0.549
128 | Q282N | -0.0575
129 | W128G | -0.819
130 | S227Q | -0.0353
131 | V500P | -0.0532
132 | G326R | -0.176
133 | V211Q | -0.837
134 | K333Q | -0.166
135 | V468P | -0.969
136 | Q265S | -0.0301
137 | V427R | -1.04
138 | L313D | -0.363
139 | R86D | -1.26
140 | M462Q | -0.198
141 | N503F | 0.0039
142 | M125E | -0.577
143 | E79S | -0.00165
144 | P338N | -0.066

Row | Variant | 8OG:A repair function score
145 | K463H | -0.12
146 | P244T | -0.234
147 | S296C | -0.0117
148 | Y425G | -0.907
149 | F418M | 0.07
150 | L423I | -0.059
151 | A194R | -1.1
152 | T380L | -0.0431
153 | T66M | -0.0066
154 | G222I | -0.608
155 | I421K | -0.173
156 | P383N | -0.294
157 | L241K | -1.01
158 | Q286N | 0.0116
159 | L183W | -0.0703
160 | E341K | -0.0881
161 | K80V | -0.423
162 | L131Y | -0.228
163 | L448I | -0.0362
164 | E168K | -0.00268
165 | L40Y | 0.179
166 | V114K | -0.435
167 | D133E | -0.0313
